Measurements: patent US20240158517A1 (HIFIBIO HK, published 2024)
Each block holds one binder with its values, some of them ahead of it.

Key:
human CXCR5 [1] = biological target: T1, human CXCR5 (human, UniProt P32302 1-372); assay: flow cytometry on an adherent stable cell line expressing hCXCR5, MFI normalized on the benchmark MFI
T1 construct: whole, on cells; Always presented on cells; one entry is used for all cell lines; also called hCXCR5; C-X-C chemokine receptor type 5
T1 sequence (looked up): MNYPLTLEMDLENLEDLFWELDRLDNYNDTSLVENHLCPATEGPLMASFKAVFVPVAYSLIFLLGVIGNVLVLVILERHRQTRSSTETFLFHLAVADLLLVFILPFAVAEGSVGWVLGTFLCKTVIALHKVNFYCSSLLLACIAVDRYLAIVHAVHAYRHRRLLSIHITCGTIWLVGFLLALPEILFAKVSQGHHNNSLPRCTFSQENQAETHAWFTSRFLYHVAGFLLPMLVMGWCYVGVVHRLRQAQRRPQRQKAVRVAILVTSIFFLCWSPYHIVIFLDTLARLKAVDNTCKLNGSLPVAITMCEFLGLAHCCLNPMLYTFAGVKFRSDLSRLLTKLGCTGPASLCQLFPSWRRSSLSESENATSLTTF
Procedure: In order to test the binding capacity to CXCR5, six chimeric monoclonal antibodies were tested in binding assay using adherent stable cell line expressing the target antigen hCXCR5.

human CXCR3 = biological target: T2, human CXCR3 (human, UniProt P49682 1-368, limits assumed); assay: flow cytometry (MFI) on hCXCR3
T2 construct: also called hCXCR3
T2 sequence (looked up): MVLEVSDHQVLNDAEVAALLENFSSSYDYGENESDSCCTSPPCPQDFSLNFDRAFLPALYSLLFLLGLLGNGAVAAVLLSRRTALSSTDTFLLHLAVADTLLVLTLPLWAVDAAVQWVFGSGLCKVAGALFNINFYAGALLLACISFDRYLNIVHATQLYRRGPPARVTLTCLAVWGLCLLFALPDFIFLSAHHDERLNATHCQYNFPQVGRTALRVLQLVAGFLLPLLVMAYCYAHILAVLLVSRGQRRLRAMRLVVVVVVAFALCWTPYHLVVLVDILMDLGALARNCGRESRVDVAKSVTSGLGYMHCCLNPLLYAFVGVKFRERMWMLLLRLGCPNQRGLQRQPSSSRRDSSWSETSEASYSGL

murine CXCR5 = biological target: T3, murine CXCR5 (mouse, UniProt Q04683 1-374); assay: flow cytometry on cells transiently transfected with murine CXCR5
T3 construct: whole, on cells; also called mouse CXCR5 ortholog
T3 sequence (looked up): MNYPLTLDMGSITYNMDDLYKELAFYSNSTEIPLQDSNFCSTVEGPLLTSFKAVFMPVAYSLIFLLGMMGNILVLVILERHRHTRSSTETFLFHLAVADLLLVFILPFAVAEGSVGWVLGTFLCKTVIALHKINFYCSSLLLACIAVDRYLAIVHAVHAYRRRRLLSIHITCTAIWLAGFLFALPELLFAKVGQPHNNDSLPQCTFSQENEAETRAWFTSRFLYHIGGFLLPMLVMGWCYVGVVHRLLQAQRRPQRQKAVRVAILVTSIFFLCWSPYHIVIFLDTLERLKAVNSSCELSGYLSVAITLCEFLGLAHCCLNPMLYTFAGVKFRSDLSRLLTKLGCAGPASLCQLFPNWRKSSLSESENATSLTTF

human CXCR5 [2] = biological target: T1, human CXCR5; assay: flow cytometry on Raji cells, binding percentage, antibody at 1 nM and 0.1 nM
Procedure: Binding properties of these 36 humanized variants were tested in binding assay to Raji cells at two different concentrations, 1 nM and 0.1 nM.

human CXCR5 [3] = biological target: T1, human CXCR5; assay: binding to hCXCR5, Exp 1 (assay not given)
human CXCR5 [4] = biological target: T1, human CXCR5; assay: binding to hCXCR5, Exp 2 (assay not given)
human CXCR5 [5] = biological target: T1, human CXCR5; assay: flow cytometry on adherent DX002 cells expressing CXCR5, MFI
human CXCR5 [6] = biological target: T1, human CXCR5; assay: binding to DX002 cells expressing CXCR5

B2: HFB2-VH10VL7 (antibody, V domains shown)
VH: QVQLVQSGAEVKKPGASVKVSCKASGFSLTSYGVSWVRQAPGQGLEWMGVIWGDGSTNYAQKLQGRVTMTKDTSTSTAYMELRSLRSDDTAVYYCARVVYWGQGTLVTVSS
VL: DIVMTQSPDSLAVSLGERATINCRSSKSLLHSNGKTYLYWFQQKPGQSPKLLLYRMSNLASGVPDRFSGSGSGTDFTLTISSLQAEDVAVYYCMQHLEYPYTFGQGTKLEIK
binding result (human CXCR5 [2]): binds

B8: HFB2-4hz14-hG1DE (antibody, V domains shown)
VH: QVQLQESGPGLVKPSETLSLTCTVSGFSLTSYGVSWVRQPPGKGLEWIGVIWGDGSTNYNPSLKSRVTISKDTSKNQVSLKLSSVTAADTAVYYCARVVYWGQGTLVTVSS
VL: DIVMTQSPLSLPVTPGEPASISCRSSQSLLHSNGYNYLYWFLQKPGQSPQLLIYRGSNRASGVPDRFSGSGSGTDFTLKISRVEAEDVGVYYCMQHLQYPYTFGGGTKVEIK
notes: Humanized (VH3/VL1b), human IgG1 with S239D/I332E (hG1DE)
EC50 (human CXCR5 [3]): 0.4 nM
EC50 (human CXCR5 [4]): 0.1 nM

B10: HFB2-4hz12-hG1DE (antibody, V domains shown)
VH: QVQLQESGPGLVKPSETLSLTCTVSGFSLTSYGVSWVRQPPGKGLEWIGVIWGDGSTNYNPSLKSRVTISKDTSKNQVSLKLSSVTAADTAVYYCARVVYWGQGTLVTVSS
VL: DIQMTQSPSSLSASVGDRVTITCRSSKSLLHSNGKTYLYWFQQKPGKAPKLLIYRMSNLASGVPSRFSGSGSGTDFTLTISSLQPEDFATYYCMQHLEYPYTFGGGTKVEIK
notes: Humanized (VH3/VL4), human IgG1 with S239D/I332E (hG1DE); also called HFB2-4hz12hIgDE
EC50 (human CXCR5 [3]): 1.2 nM
EC50 (human CXCR5 [4]): 0.3 nM

B11: HFB2-4hz37hG1DE (antibody, V domains shown)
VH: QVQLQESGPGLVKPSETLSLTCTVSGFSLTSYGVSWVRQPPGKGLEWIGVIWGDGSTNYNPSLKSRVTISKDTSKNQVSLKLSSVTAADTAVYYCARVVYWGQGTLVTVSS
VL: EIVMTQSPATLSVSPGERATLSCRSSKSLLHSNGKTYLYWFQQKPGQAPRLLIYRMSNLASGIPARFSGSGSGTEFTLTISSVQSEDVAVYYCMQHLEYPYTFGQGTKLEIK
notes: Humanized (VH3/VL6) produced in hG1DE format (human IgG1, S239D/I332E)
EC50 (human CXCR5 [5]): 0.0785 nM
EC50 (human CXCR5 [6]): 0.099 nM

B13: HFB2-VH6VL7 (antibody, V domains shown)
VH: QVQLQESGPGLVKPSGTLSLTCAVSGFSLTSYGVSWVRQPPGKGLEWIGVIWGDGSTNYNPSLKSRLTISKDKSKNQVSLKLSSVTAADTAVYYCARVVYWGQGTLVTVSS
VL: DIVMTQSPDSLAVSLGERATINCRSSKSLLHSNGKTYLYWFQQKPGQSPKLLLYRMSNLASGVPDRFSGSGSGTDFTLTISSLQAEDVAVYYCMQHLEYPYTFGQGTKLEIK
binding result (human CXCR5 [2]): binds

B14: HFB2-VH6VL4 (antibody, V domains shown)
VH: QVQLQESGPGLVKPSGTLSLTCAVSGFSLTSYGVSWVRQPPGKGLEWIGVIWGDGSTNYNPSLKSRLTISKDKSKNQVSLKLSSVTAADTAVYYCARVVYWGQGTLVTVSS
VL: DIQMTQSPSSLSASVGDRVTITCRSSKSLLHSNGKTYLYWFQQKPGKAPKLLIYRMSNLASGVPSRFSGSGSGTDFTLTISSLQPEDFATYYCMQHLEYPYTFGGGTKVEIK
binding result (human CXCR5 [2]): binds

Other lines, results leading:

EC50 (human CXCR5 [1]): 0.924 nM
binding result (human CXCR3): no binding (tested: about 150 nM)
binding result (murine CXCR5): no binding (tested: about 150 nM)
B1: HFB2-4-hG1 (antibody, V domains shown)
VH: QVQLKESGPGLVAPSQSLSITCTVSGFSLTSYGVSWVRQPPGKGLEWLGVIWGDGSTNYHSGLISRLSISKDNSKSQVFLKLNSLQSDDTATYYCARVVYWGQGTLVTVSA
VL: DIVMTQAAPSVPVTPGESISISCRSSKSLLHSNGKTYLYWFLQRPGQSPQLLLYRMSNLASGVPDRFSGSGSGTAFTLRISRVEAEDVGVYYCMQHLEYPYTFGGGTKLEIK
notes: Mouse-human chimeric antibody, human IgG1 constant region; also called parental

EC50 (human CXCR5 [1]): 0.5 nM
binding result (human CXCR3): no binding (tested: about 150 nM)
binding result (murine CXCR5): no binding (tested: about 150 nM)
B3: HFB2-6-hG1 (antibody, V domains shown)
VH: QIQLQQSGPELVEPGASVKLSCKASGYTFTDYTIHWVKQSPGQGLEWIGWIYPGSGNIKYNDKFKGKATMTADKSSSTAYMQLSSLTSEDSAVYFCARGLRREFAYWGQGTLVTVSA
VL: DIVMTQAAFSNPVTLGTSASISCRSSKSLLHSNGITYLYWYLQKPGQSPQLLIYQMSNLASGVPDRFSSSGSGTDFTLRISRVEAEDVGVYYCAQSLELPLTFGAGTKLELK
notes: Mouse-human chimeric antibody, human IgG1 constant region

binding result (human CXCR5 [2]): binds
B4: HFB2-VH8VL4 (antibody, V domains shown)
VH: QVQLVESGGGVVQPGRSLRLSCAVSGFSLTSYGVSWVRQAPGKGLEWLGVIWGDGSTNYHSGLISRLTISKDNSKNTVYLQMNSLRAEDTAVYYCARVVYWGQGTLVTVSS
VL: DIQMTQSPSSLSASVGDRVTITCRSSKSLLHSNGKTYLYWFQQKPGKAPKLLIYRMSNLASGVPSRFSGSGSGTDFTLTISSLQPEDFATYYCMQHLEYPYTFGGGTKVEIK

binding result (human CXCR5 [2]): binds
B5: HFB2-VH8VL6 (antibody, V domains shown)
VH: QVQLVESGGGVVQPGRSLRLSCAVSGFSLTSYGVSWVRQAPGKGLEWLGVIWGDGSTNYHSGLISRLTISKDNSKNTVYLQMNSLRAEDTAVYYCARVVYWGQGTLVTVSS
VL: EIVMTQSPATLSVSPGERATLSCRSSKSLLHSNGKTYLYWFQQKPGQAPRLLIYRMSNLASGIPARFSGSGSGTEFTLTISSVQSEDVAVYYCMQHLEYPYTFGQGTKLEIK

binding result (human CXCR5 [2]): binds
B6: HFB2-4hz41hG1 (antibody, V domains shown)
VH: QVQLVESGGGVVQPGRSLRLSCAVSGFSLTSYGVSWVRQAPGKGLEWLGVIWGDGSTNYHSGLISRLTISKDNSKNTVYLQMNSLRAEDTAVYYCARVVYWGQGTLVTVSS
VL: DIVMTQSPDSLAVSLGERATINCRSSKSLLHSNGKTYLYWFQQKPGQSPKLLLYRMSNLASGVPDRFSGSGSGTDFTLTISSLQAEDVAVYYCMQHLEYPYTFGQGTKLEIK
notes: Humanized, human IgG1 (hG1); also called HFB2-VH8VL7

binding result (human CXCR5 [2]): binds
B7: HFB2-VH10VL4 (antibody, V domains shown)
VH: QVQLVQSGAEVKKPGASVKVSCKASGFSLTSYGVSWVRQAPGQGLEWMGVIWGDGSTNYAQKLQGRVTMTKDTSTSTAYMELRSLRSDDTAVYYCARVVYWGQGTLVTVSS
VL: DIQMTQSPSSLSASVGDRVTITCRSSKSLLHSNGKTYLYWFQQKPGKAPKLLIYRMSNLASGVPSRFSGSGSGTDFTLTISSLQPEDFATYYCMQHLEYPYTFGGGTKVEIK

EC50 (human CXCR5 [5]): 0.0878 nM
EC50 (human CXCR5 [6]): 0.106 nM
B9: HFB2-4hz38hG1DE (antibody, V domains shown)
VH: QVQLQESGPGLVKPSETLSLTCTVSGFSLTSYGVSWVRQPPGKGLEWIGVIWGDGSTNYNPSLKSRVTISKDTSKNQVSLKLSSVTAADTAVYYCARVVYWGQGTLVTVSS
VL: DIVMTQSPDSLAVSLGERATINCRSSKSLLHSNGKTYLYWFQQKPGQSPKLLLYRMSNLASGVPDRFSGSGSGTDFTLTISSLQAEDVAVYYCMQHLEYPYTFGQGTKLEIK
notes: Humanized (VH3/VL7) in hG1DE format

EC50 (human CXCR5 [3]): 0.6 nM
EC50 (human CXCR5 [4]): 0.05 nM
B12: HFB2-4hz15-hG1DE (antibody, V domains shown)
VH: QVQLQESGPGLVKPSETLSLTCTVSGFSLTSYGVSWVRQPPGKGLEWIGVIWGDGSTNYNPSLKSRVTISKDTSKNQVSLKLSSVTAADTAVYYCARVVYWGQGTLVTVSS
VL: DIVMTQSPLSLPVTPGEPISLSCRSSKSLLHSNGKTYLYWFLQKPGQSPQLLLYRMSNLASGVPDRFSGSGSGTDFTLKISRVEAEDVGVYYCMQHLEYPYTFGGGTKLEIK
notes: Humanized (VH3/VL1c), human IgG1 with S239D/I332E (hG1DE)

EC50 (human CXCR5 [5]): 0.232 nM
EC50 (human CXCR5 [6]): 0.26 nM
B15: HFB2-4hz39hG1DE (antibody, V domains shown)
VH: QVQLQESGPGLVKPSGTLSLTCAVSGFSLTSYGVSWVRQPPGKGLEWIGVIWGDGSTNYNPSLKSRLTISKDKSKNQVSLKLSSVTAADTAVYYCARVVYWGQGTLVTVSS
VL: EIVMTQSPATLSVSPGERATLSCRSSKSLLHSNGKTYLYWFQQKPGQAPRLLIYRMSNLASGIPARFSGSGSGTEFTLTISSVQSEDVAVYYCMQHLEYPYTFGQGTKLEIK
notes: Humanized (VH6/VL6) in hG1DE format
